How the values were obtained:
PD-L1 on cells [1] = biological target: T1, PD-L1 on cells (human, UniProt Q9NZQ7 19-290); experiment: cell-based or functional assay
CD3 on T cells = biological target: T2, CD3 on T cells (UniProt P07766 23-207); experiment: flow cytometry, apparent affinity on CD3 + Jurkat T cells
T2 construct: whole, on cells; also called CD3 + Jurkat T 세포; Jurkat T 세포의 CD3

PD-L1 on cells [2] = biological target: T1, PD-L1 on cells; experiment: flow cytometry, apparent affinity on PD-L1 + Karpas-299 cells
PD-L1-his [3] = biological target: T3, PD-L1-his (human, UniProt Q9NZQ7 19-238, limits assumed); experiment: SPR (Biacore 8K), PD-L1-his immobilised on CM5 chip, binder as analyte
T3 construct: also called 인간 PD-L1; not shown: his tag

PD-L1-his [4] = biological target: T3, PD-L1-his; experiment: SPR (Biacore 8K); ratio of KD against YBL-007 on PD-L1
PD-L1-his [5] = biological target: T3, PD-L1-his; experiment: SPR (Biacore 8K), PD-L1-his immobilised on CM5 chip, binder as analyte; monovalent stem Fv

T1 sequence (Q9NZQ7 19-290): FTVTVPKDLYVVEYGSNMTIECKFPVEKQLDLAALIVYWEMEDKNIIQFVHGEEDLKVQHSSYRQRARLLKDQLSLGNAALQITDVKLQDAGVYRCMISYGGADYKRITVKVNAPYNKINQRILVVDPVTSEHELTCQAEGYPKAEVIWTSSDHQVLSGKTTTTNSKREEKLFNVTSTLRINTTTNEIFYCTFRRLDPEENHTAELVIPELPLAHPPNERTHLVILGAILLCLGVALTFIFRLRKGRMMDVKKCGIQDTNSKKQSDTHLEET
T3 sequence (Q9NZQ7 19-238 limits assumed): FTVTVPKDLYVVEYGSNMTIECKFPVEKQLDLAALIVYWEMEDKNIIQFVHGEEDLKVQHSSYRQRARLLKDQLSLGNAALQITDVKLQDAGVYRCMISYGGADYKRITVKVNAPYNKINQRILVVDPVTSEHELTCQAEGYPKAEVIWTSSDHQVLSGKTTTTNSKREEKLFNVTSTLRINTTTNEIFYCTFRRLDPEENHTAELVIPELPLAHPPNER
T2 sequence (P07766 23-207): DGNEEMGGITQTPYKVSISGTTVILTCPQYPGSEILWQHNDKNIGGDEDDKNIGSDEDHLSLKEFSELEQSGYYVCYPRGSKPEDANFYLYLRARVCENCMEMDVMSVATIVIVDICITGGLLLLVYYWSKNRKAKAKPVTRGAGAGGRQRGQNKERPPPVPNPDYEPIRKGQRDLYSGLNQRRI

B1: ACE-05 (항-PD-L1 Fab × 항-CD3 Fv) (bispecific antibody)
heavy 1: not shown
heavy 2: not shown
light: QLVLTQPPSVSGAPGQRVTISCTGSSSNIGAGYDVHWYQQLPGAAPKLLIYGDINRPSGVPDRFSGSKSGISASLAITGLQAEDEADYYCQSYDSSLSGGVFGGGTKLTVLRSVAAPSVFIFPPSDEQLKSGTASVVCLLNNFYPREAKVQWKVDNALQSGNSQESVTEQDSKDSTYSLSSTLTLSKADYEKHKVYACEVTHQGLSSPVTKSFNRGEC
notes: also called ALiCE; ACE-05-VH / ACE-05-VL / ACE-05-LC
Q: Which “T 세포 활성화 효율 (EC50); PD-1/PD-L1 blockade bioassay, NFAT-luciferase, PD-L1/aAPC CHO-K1 + PD-1 Jurkat” value (PD-L1 on cells [1]) does the source give for B1 here?
A: Its value is 210 pM.

Q: And the “T 세포 활성화 효율, fold against BiTE-05; PD-1/PD-L1 blockade bioassay” value (PD-L1 on cells [1])?
A: Its value is 5 fold.

Q: What about the “표적 사멸 활성 (EC50), LDH release, PD-L1 + HCC827 cells with effector cells (PBMC)” value (PD-L1 on cells [1]) of the same binder?
A: Its value is 1.97 pM.

Q: What about the “표적 사멸 활성 (EC50), LDH release, PD-L1 + MDA-MB-231 cells with effector cells (CD3 + T cells)” value (PD-L1 on cells [1]) of the same binder?
A: The value was 8.37 pM.

Q: What about the Kd (CD3 on T cells) of the same binder?
A: The Kd was 52400 pM.

Q: And the Kd (PD-L1 on cells [2])?
A: The Kd was 31.4 pM.

Q: And the Kd (PD-L1-his [3])?
A: Its Kd is 678 pM.

B2: YBL-007 (항-PD-L1 모 항체) (antibody, V domains shown)
VH: QMQLVQSGAEVKKPGSSVKVSCKASGGTFSSYAISWVRQAPGQGLEWMGRIIPILGIANYAQKFQGRVTITADKSTSTAYMELSSLRSEDTAVYYCAKPRDGYNLVAFDIWGQGTMVTVSS
VL: QLVLTQPPSVSGAPGQRVTISCTGSSSNIGAGYDVHWYQQLPGAAPKLLIYGDINRPSGVPDRFSGSKSGISASLAITGLQAEDEADYYCQSYDSSLSGGVFGGGTKLTVLR
notes: Parent IgG; also called anti-PD-L1 parent antibody (Y-Biologics Inc.)
Q: For B2, which Kd (PD-L1-his [3]) is on record?
A: The Kd was 646 pM.

B3: ACE-31 (항-CD3 Fab × 항-PD-L1 Fv) (bispecific antibody)
heavy 1: EVQLQQSGPELVKPGPSMKISCKASGYSFTGYTMNWVKQSHGKNLEWMGLINPYKGVSTYNQKFKDKATLTVDKSSSTAYMELLSLTSEDSAVYYCARSGYYGDSDWYFDVWGQGTTLTVFSASTKGPSVFPLAPSSKSTSGGTAALGCLVKDYFPEPVTVSWNSGALTSGVHTFPAVLQSSGLYSLSSVVTVPSSSLGTQTYICNVNHKPSNTKVDKKVEPKSCDKTHTCPPCPPCPAPELLGGPGGGGSGGGGSQMQLVQSGAEVKKPGSSVKVSCKASGGTFSSYAISWVRQAPGQGLEWMGRIIPILGIANYAQKFQGRVTITADKSTSTAYMELSSLRSEDTAVYYCAKPRDGYNLVAFDIWGQGTMVTVSS
heavy 2: EVQLQQSGPELVKPGPSMKISCKASGYSFTGYTMNWVKQSHGKNLEWMGLINPYKGVSTYNQKFKDKATLTVDKSSSTAYMELLSLTSEDSAVYYCARSGYYGDSDWYFDVWGQGTTLTVFSASTKGPSVFPLAPSSKSTSGGTAALGCLVKDYFPEPVTVSWNSGALTSGVHTFPAVLQSSGLYSLSSVVTVPSSSLGTQTYICNVNHKPSNTKVDKKVEPKSCDKTHTCPPCPPCPAPELLGGPGGGGSQLVLTQPPSVSGAPGQRVTISCTGSSSNIGAGYDVHWYQQLPGAAPKLLIYGDINRPSGVPDRFSGSKSGISASLAITGLQAEDEADYYCQSYDSSLSGGVFGGGTKLTVLR
light: DIQMTQTTSSLSASLGDRVTISCRASQDIRNYLNWYQQKPDGTVKLLIYYTSRLHSGVPSKFSGSGSGTDYSLTISNLEQEDIATYFCQQGNTLPWTFAGGTKLEIKRTVAAPSVFIFPPSDEQLKSGTASVVCLLNNFYPREAKVQWKVDNALQSGNSQESVTEQDSKDSTYSLSSTLTLSKADYEKHKVYACEVTHQGLSSPVTKSFNRGEC
notes: also called ACE-31-VH / ACE-31-VL / ACE-31-LC
Q: How did the “fold lower binding affinity than the parent antibody YBL-007” value (PD-L1-his [4]) turn out when B3 was run?
A: The value was 40 fold.

Q: What about the Kd (CD3 on T cells) of the same binder?
A: The Kd was 856 pM.

Q: And the Kd (PD-L1 on cells [2])?
A: Its Kd is 20600 pM.

Q: What about the Kd (PD-L1-his [5]) of the same binder?
A: Its Kd is 27200 pM.

Source: patent publication KR20210043475A (dated 2021)
